Key:
[1] = target: LF1p (aa 1-330), GAL4 two-hybrid fusion (C. reinhardtii) (UniProt Q7XJJ6); test: two-hybrid
[2] = target: LF2p, full-length coding region, GAL4 two-hybrid fusion (C. reinhardtii) (UniProt A0MM70); test: two-hybrid

LF3p, full-length coding region, GAL4 two-hybrid fusion (natural protein)
β-galactosidase (Miller units) [1]: 61.1 Miller units | β-galactosidase (Miller units) [2]: 15.8 Miller units

Source: publication PMC2064056
